Results from article PMC4169507.
pKd: −log10 of the molar value.

These substances were tested against fibronectin (UniProt P02751) (assay: bacterial adherence to fibronectin-coated 96-well plates (colony counting)). Conditions: plates coated with 25 µg/ml of fibronectin; in the presence of arabinose; parent: 100; read off a plot.

Going from “AafA, major subunit of AAF/II, on wild type EAEC 042 R23A” to “AafA, major subunit of AAF/II, on wild type EAEC 042 K66A”, the percent of parent (% of binding to Fn) falls from 12 to 0.

Going from “AafA, major subunit of AAF/II, on wild type EAEC 042 S73A” to “AafA, major subunit of AAF/II, on wild type EAEC 042 T114A”, the percent of parent (% of binding to Fn) falls from 80 to 71.

Compared with “AafA, major subunit of AAF/II, on wild type EAEC 042 R40A”, “AafA, major subunit of AAF/II, on wild type EAEC 042 G69A” is higher in percent of parent (% of binding to Fn): 2 for the first, 81 for the second.

Compared with “AafA, major subunit of AAF/II, on wild type EAEC 042 T77A”, “AafA, major subunit of AAF/II, on wild type EAEC 042 K72A” is lower in percent of parent (% of binding to Fn): 67 for the first, 6 for the second.

Compared with “AafA, major subunit of AAF/II, on wild type EAEC 042 R44A”, “AafA, major subunit of AAF/II, on wild type EAEC 042 S30A” is higher in percent of parent (% of binding to Fn): 6 for the first, 65 for the second.

Going from “AafA, major subunit of AAF/II, on wild type EAEC 042 T38L” to “AafA, major subunit of AAF/II, on wild type EAEC 042 E57A”, the percent of parent (% of binding to Fn) rises from 72 to 76.

Compared with “AafA, major subunit of AAF/II, on wild type EAEC 042 K66R”, “AafA, major subunit of AAF/II, on wild type EAEC 042 E131A” is higher in percent of parent (% of binding to Fn): 51 for the first, 75 for the second.

First: AafA, major subunit of AAF/II, on wild type EAEC 042 K72R
Second: AafA, major subunit of AAF/II, on wild type EAEC 042 L132A
The percent of parent (% of binding to Fn) of the first is higher: 100 for the first, 79 for the second.

Going from “AafA, major subunit of AAF/II, on wild type EAEC 042 N88A” to “AafA, major subunit of AAF/II, on wild type EAEC 042 D14A”, the percent of parent (% of binding to Fn) rises from 70 to 99.

Each substance was assayed against fibronectin (UniProt P02751) (assay: SPR). Conditions: not given.

First: AggAdsA triple mutant (Lys73Ala, Lys76Ala, and Lys78Ala) (domain or fragment)
Second: AggBdsA (AAF/I minor subunit AggB complemented with the donor strand of AggA) (domain or fragment)
The pKd of the first is lower: under 3.70 for the first, 4.00 for the second.
